According to PMC10029155 (2023):
Where no end group is shown, it is not given here.

B1: CTSB 4-1 phage-displayed peptide (peptide)
chain: WDMWPSMDWKAE
modifications: also: displayed on M13 phage pIII
B2: CTSB BP3 (peptide)
chain: SSTTNSNSTSNTK-biotin
B3: CTSB BP3 (peptide)
chain: SSTTNSNSTSNTK-biotin

Each binder was assayed against cathepsin B (Homo sapiens, UniProt P07858) (assay: square wave voltammetry).

B1 and B2 are within 1.5-fold of each other in Kd: 73.7 nM for the first, 50.8 nM for the second.

B3 showed a Kd of 11.6 nM.
